Test results reported in patent publication US20260150817A1.
Read-outs that look alike come from different tables or passages of the source.

Experiments:
[1] = biological target: SARS-Cov2 Spike Active Trimer SAT (R&D Systems; Catalog No. 10549-CV) (SARS-CoV-2) (UniProt P0DTC2)
[2] = biological target: SARS-Cov2 Spike Active Trimer SAT (R&D Systems; Catalog No. 10549-CV) (SARS-CoV-2) (UniProt P0DTC2); remark: listed apart in the source
[3] = biological target: SARS-COV-2 Spike(S) protein with an inactivated furin site, on HEK293-Spike cells (293-SARS2-S-dfur, (SARS-CoV-2) (UniProt P0DTC2))
[4] = biological target: SARS-Cov2 Spike Active Trimer SAT (R&D Systems; Catalog No. 10549-CV) (SARS-CoV-2) (UniProt P0DTC2); test: SPR (Biacore)
[5] = biological target: SARS-Cov2 Spike Active Trimer SAT (R&D Systems; Catalog No. 10549-CV) (SARS-CoV-2) (UniProt P0DTC2); test: SPR (Carterra)
[6] = biological target: SARS-Cov2 Spike Active Trimer SAT (R&D Systems; Catalog No. 10549-CV) (SARS-CoV-2) (UniProt P0DTC2); test: ELISA, serially diluted purified Nb-Fc against SAT antigen

human SAT Nb-Fc control VH-Ab-8 (HAb8-S) (Fc fusion)
Kd [1]: 19.8 nM
Response [2]: 0.489
koff [2]: 0.00294 s⁻¹
kon [2]: 149000 M⁻¹ s⁻¹
GMFI (HEK293-Spike) [3]: 430
GMFI Ratio over No 1st Ab control (HEK293-Spike) [3]: 21.1
Kd [4]: 5.7 nM
Kd [5]: 37.3 nM
EC50 [6]: 0.018 nM
